From the supplement of paper PMC9170038 come the findings set out here.

This series relates to MS2 coat protein. The series can be described thus: apparent KD of MS2 coat protein; designed switch direction (-1 OFF switch, 1 ON switch): -1; higher = weaker reporter binding. In outline: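 Stalled E. coli RNA polymerase transcribed designed RNA switches on Illumina chips, which were then titrated with SNAP-549-labelled MS2 coat protein, doubling from 0.7 or 1.5 nM to 3 µM. Steps lasted from 0.8–1.5 h at the lowest concentration to 10–20 min at the highest. The apparent KD is each design's median over clusters of curve-fitted normalised fluorescence.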

Where [1] appears, read: Eterna round: R95, input ligand: microRNA oligo, concentration not stated.
Where [2] appears, read: input ligand: microRNA oligo, concentration not stated.
The mark [3] stands for this setting: Eterna round: R95, input ligand: FMN 200 uM.
The mark [4] stands for this setting: Eterna round: R95, input ligand: none.

With “CCUCCGGUAUAGGAUAUUUAUGAGCUCAGUUCUAAAGAAGGGUAUACAUGAGGAUCACCCAUGUGUGAAGUUAU [Eternabot (L2) Solution 20] (Eterna round: R97, puzzle: Exclusion 6)”, the “apparent KD of MS2 coat protein” value (input ligand: FMN 200 uM) is 52.5 nM and the “apparent KD of MS2 coat protein” value (input ligand: none) came to 49.9 nM.
As for “CCUCGACAUGAGGAUCACCCAUGUCAGGAUAUUGUGUCUCGGGUUUUUUACCGUUAGGCAAGAAGGGAUGUGUG [LRO-Excl1-14] (puzzle: Exclusion 1)”, under setting [1], the “apparent KD of MS2 coat protein” value amounted to 19.7 nM.
Same read-out and setting: for “CCUCGACGGUAGGAUAUCGUCAAACUAUUGUGAUGAGAAGGACUGACAUGAGGAUCACCCAUGUUAACGUGAUG [Exclusion 6 - 7:a] (puzzle: Exclusion 6)” the value was 14.8 nM.
In the case of “CCUCGCCCUCUUGCACAUGAGGAUCACCCAUGUUUUACGUACUAGGAUAUAGCUAUGUUCAAUCGUUAGAAGGAGUUCAUGGAU [Eternabot solution 37] (Eterna round: R96, puzzle: Exclusion NG 3)”, the “apparent KD of MS2 coat protein” value under setting [2] is 77.4 nM.
For “CCUCUACAUGAGGAUCACCCAUGUGAGGAUAUCUCGGAGCAGCCUAUUAAGGCGCUCCAGAGAAGGCACGUGUA [Dizasoorce] (puzzle: Exclusion 1)”, the “apparent KD of MS2 coat protein” value under setting [1] came out at 17.9 nM.
As for “CCUGGGUAAGGAUAUUUGAUUCCCUCCGGUUAGGGAGGAUGGAAGAAGGUACAUGAGGAUCACCCAUGUGUGGA [Eternabot (L1) Solution 67] (Eterna round: R97, puzzle: Exclusion 4)”, the “apparent KD of MS2 coat protein” value stood at 94.7 nM (input ligand: FMN 200 uM) and 97.8 nM (input ligand: none).
In the case of “CCUUAGUCAGGAUAUUGAGGUAAAAGAAAAGAAAACGACAGCAAGAAGGGACAUGAGGAUCACCCAUGUAUAAA [Bequxeain] (puzzle: Exclusion 4)”, the “apparent KD of MS2 coat protein” value runs as follows: under setting [3], 24.4 nM; under setting [1], 30.1 nM; under setting [4], 16.2 nM.
Turning to “CGAUAAAAGACAGGAUAUGAGGAGAGAGAGAGAUCAGAAGGGUCACAUGAGGAUCACCCAUGUGAGUUCUCGAAAGGAAAGAGG [Prohibition 51 - Jieux - Exclusion NG 1] (Eterna round: R96, puzzle: Exclusion NG 1)”, the “apparent KD of MS2 coat protein” value is, setting by setting: (input ligand: FMN 200 uM) 21.4 nM; under setting [2], 15 nM; (input ligand: none) 23 nM.
For “CGAUCACAUGAGGAUCACCCAUGUCAGGAUAUCGUCCAUAGGAAACAACCCUUCGAGGCGAGAAGGGACAAUCG [Eternabot (Original) Solution 29] (Eterna round: R97, puzzle: Exclusion 1)”, the “apparent KD of MS2 coat protein” value is 46.9 nM (input ligand: FMN 200 uM) and 31.1 nM (input ligand: none).
Turning to “CGAUGUAACACAGGAUAUCAUCGCAACUGACGUUGAGAAGGGUGACAUGAGGAUCACCCAUGUGAUUUCUCAAUAUUAUACAUC [Prohibition 82 - Jieux - Exclusion NG 1] (Eterna round: R96, puzzle: Exclusion NG 1)”, the “apparent KD of MS2 coat protein” value by setting is: (input ligand: FMN 200 uM) 715 nM; under setting [2], 830 nM; (input ligand: none) 1390 nM.
Consider “CGCAUGUGAGGAUAUUAGUAGUAGUCAGAAUAGACUAUUACUGAGAAGGUACAUGAGGAUCACCCAUGUAUGCG [Eli x4 4.22] (Eterna round: R97, puzzle: Exclusion 4)”, for which the “apparent KD of MS2 coat protein” value (input ligand: FMN 200 uM) turned out to be 38.9 nM and the “apparent KD of MS2 coat protein” value (input ligand: none) amounted to 21.5 nM.
Consider “CGCCCUGACGAAGGAUAUUAAGCUCAUACAUGAGGAUCACCCAUGUCCAUAGUAGUGUAUGCACCUGAGAAGGUCGUCAGCGCU [Eternabot solution 50] (Eterna round: R96, puzzle: Exclusion NG 2)”, for which the “apparent KD of MS2 coat protein” value by setting is: (input ligand: FMN 200 uM) 213 nM; under setting [2], 240 nM; (input ligand: none) 257 nM.
“CGCGACUCAGGAUAUACAUGAGGAUCACCCAUGUGGAACUACUGGGUCGAUAAAAGGUGUAGAAGGGAGGAAAU [Veveesla] (puzzle: Exclusion 3)”: the “apparent KD of MS2 coat protein” value reads like this: under setting [3], 14.3 nM; under setting [1], 10.5 nM; under setting [4], 13.5 nM.
With “CGGAACCAGACAGGAUAUACCUGUCCGAGACAGACACACAUGAGGAUCACCCAUGUUGAUGUCAGGUAGAAGGGUCAUAAAGAC [Eternabot solution 7] (Eterna round: R96, puzzle: Exclusion NG 2)”, the “apparent KD of MS2 coat protein” value stood at 9.86 nM (input ligand: FMN 200 uM), 10.3 nM under setting [2] and 11.5 nM (input ligand: none).
Take “CGGAGCAGAGGGAGAUCCAACAUGAGGAUCACCCAUGUCUCACAAGCUUUUUGCUCAUCUUAUUGUACCUUGGUGCU [JL ViennaUCT Edcesobi mod 6] (puzzle: Sensor v3, turn-off variant 1)”: the “apparent KD of MS2 coat protein” value was determined as 40.5 nM under setting [3], 10.1 nM under setting [1] and 46.8 nM under setting [4].
“CGGAUGUAAGGAUAUUAGUAGUAGUCAGAAUAGACUAUUACUGAGAAGGUACAUGAGGAUCACCCAUGUUUCCG [Eli x4 4.18] (Eterna round: R97, puzzle: Exclusion 4)”: the “apparent KD of MS2 coat protein” value was 27.5 nM (input ligand: FMN 200 uM) and 16.8 nM (input ligand: none).
Consider “CGGAUGUGAGGAUAUACAUGAGGAUCACCCAUGUGUGCCAGCUAGCUGACUGGCACUUGUAGAAGGCACGUCUG [JL-ex3-2.14 Brourd mod] (puzzle: Exclusion 3)”, for which the “apparent KD of MS2 coat protein” value under setting [1] is 11.1 nM.
Consider “CGGCAAAGGUAGGAUAUGCUAGACGAGAGUCUAGCAGAAGGACCUACAUGAGGAUCACCCAUGUGUCCAAGCCG [Mat - Exclusion 6 - Eli Mod - D20] (Eterna round: R97, puzzle: Exclusion 6)”, for which the “apparent KD of MS2 coat protein” value (input ligand: FMN 200 uM) came out at 32 nM and the “apparent KD of MS2 coat protein” value (input ligand: none) turned out to be 97.3 nM.
Consider “CGGGCCGGCCUUCCGGCCGGCCCGACAUGAGGAUCACCCAUGUAGGAUAUCCCGGCUGCCGGCCGGGAGAAGGACAUGCGCCCG [-45.9, -45.9 kcal, 17% A] (Eterna round: R96, puzzle: Exclusion NG 3)”, for which the “apparent KD of MS2 coat protein” value by setting is: (input ligand: FMN 200 uM) 104 nM; under setting [2], 65.3 nM; (input ligand: none) 49.3 nM.
With “CGGUGCUGAGGAUAUACAUGAGGAUCACCCAUGUGUUCCAGCUAGCGUACUGGCGGAUGUAGAAGGCGGUACUG [JL-ex3-3.40 Brourd mod] (puzzle: Exclusion 3)”, the “apparent KD of MS2 coat protein” value reads like this: under setting [3], 52.8 nM; under setting [1], 13.1 nM; under setting [4], 17.7 nM.
For “CGGUGUAACACAGGAUAUCAUCGCAACUGACGUUGAGAAGGGUGACAUGAGGAUCACCCAUGUGAUUUCUCAAUAUUAUACAUC [Prohibition 83 - Jieux - Exclusion NG 1] (Eterna round: R96, puzzle: Exclusion NG 1)”, the “apparent KD of MS2 coat protein” value is, setting by setting: (input ligand: FMN 200 uM) 508 nM; under setting [2], 481 nM; (input ligand: none) 629 nM.
For “CGGUGUAACAGAGGAUAUGAGCGCAACUGACGAUCAGAAGGCUGACAUGAGGAUCACCCAUGUGAUUUCUCAAUAUUAUACAUC [Prohibition 89 - Jieux - Exclusion NG 1] (Eterna round: R96, puzzle: Exclusion NG 1)” the same measures were 34.2 nM, 324 nM and 153 nM.
Consider “CGGUGUAGAGGAUAUACGUGGAUGUAAGUUCAUGAUAUUUUACAUGAGGAUCACCCAUGUAGAAGGCUAUAGCG [JR_Ex2_Sub079] (Eterna round: R97, puzzle: Exclusion 2)”, for which the “apparent KD of MS2 coat protein” value is 36.2 nM (input ligand: FMN 200 uM) and 351 nM (input ligand: none).
For “CGUAAGCUAGGAUAUGCUUUGGGAAAGCAUUCCUUCGAUAAACUUGAGGAUCACCCAAGUAGAAGGAGCUUACG [salish99_ex2_r4_010] (Eterna round: R97, puzzle: Exclusion 2)” the same measures were 24.8 nM and 16.8 nM.
In the same order, the values of “CGUAAGUGAGGAUAUCGUAGAGGAGACAUGAGGAUCACCCAUGUGUCAAGCGGUCCCGAAUGAGAAGGCACUGGUU [EX5 B.25] (Eterna round: R97, puzzle: Exclusion 5)” are 21.5 nM and 20.3 nM.
Turning to “CGUAGACAUGAGGAUCACCCAUGUGAGGAUAUGCUUUUUUAUUAGAAAUGGUGGAGGAGCAGAAGGCACGUGCG [-21.6, -21.5 kcal, 28% A] (Eterna round: R97, puzzle: Exclusion 1)”, the “apparent KD of MS2 coat protein” value is, setting by setting: (input ligand: FMN 200 uM) 160 nM; (input ligand: none) 59.7 nM.
For “CGUAUGUAAGGAUAUUAGUAGUAGUCAGAAUAGACUAUUACUGAGAAGGUACAUGAGGAUCACCCAUGUUAGCG [Eli x4 4.15] (Eterna round: R97, puzzle: Exclusion 4)”, the “apparent KD of MS2 coat protein” value (input ligand: FMN 200 uM) is 229 nM and the “apparent KD of MS2 coat protein” value (input ligand: none) amounted to 31.6 nM.
For “CGUCAACAUGAGGAUCACCCAUGUUAGGAUAUAGAGCCAGGGCACGACGCUAACCAGUCUAGAAGGGACGUGGG [Eternabot (Original) Solution 5] (Eterna round: R97, puzzle: Exclusion 1)” the same measures were 45.9 nM and 37.1 nM.
In the same order, the values of “CGUCAGUGAGGAUAUGGUAACAUUUACAUGAGGAUCACCCAUGUUUCUUGGGACUAAAUACUAGAAGGCACUGACG [JR_Ex5_Sub032] (Eterna round: R97, puzzle: Exclusion 5)” are 23.1 nM and 15 nM.
For “CGUCUGUAAGGAUAUGGUAGCGUUUACAUGAGGAUCACCCAUGUUACAUGGGACUAGAGACUAGAAGGUACGAACG [EX5 #51] (Eterna round: R97, puzzle: Exclusion 5)” the same measures were 589 nM and 2520 nM.
In the case of “CGUCUGUAAGGAUAUGGUUGCAUCAACAUGAGGAUCACCCAUGUUACAUGGGACUAGUGAUUAGAAGGUACGAACG [EX5 #57] (Eterna round: R97, puzzle: Exclusion 5)”, the “apparent KD of MS2 coat protein” value by setting is: (input ligand: FMN 200 uM) 58.3 nM; (input ligand: none) 54.2 nM.
